According to patent US20250243265A1 (published 2025):
Like-named read-outs stand apart in the source and are kept apart here.

Legend:
[1] = target: T1, linear diubiquitin (Boston Biochem) (UniProt P0CG48 1-152); experiment: phage competition ELISA; fit parameter m3
[2] = target: T1, linear diubiquitin (Boston Biochem); experiment: phage competition ELISA; fit parameter m3; remark: listed apart in the source

B1: 1D8 Fab displayed on phage (Fab, V domains shown)
VH: EVQLVESGGGLVQPGGSLRLSCAASGFTFTDYDIHWVRQAPGKGLEWVAGISPYGGYTDYADSVKGRFTISADTSKNTAYLQMNSLRAEDTAVYYCAREAGSRLLSVMDYWGQGTLVTVSS
VL: DIQMTQSPSSLSASVGDRVTITCRASQDVSTAVAWYQQKPGKAPKLLIYSASFLYSGVPSRFSGSGSGTDFTLTISSLQPEDFATYYCQQSYTTPPTFGQGTKVEIK
- IC50 [1]: 5.77 µM

B2: 1D8.4F5 Fab displayed on phage (Fab, V domains shown)
VH: EVQLVESGGGLVQPGGSLRLSCAASGFTFTDDDIHWVRQAPGKGLEWVAEISPYGGYTDYADSVKGRFTISADTSKNTAYLQMNSLRAEDTAVYYCAREAGSRLLSVMDYWGQGTLVTVSS
VL: DIQMTQSPSSLSASVGDRVTITCRASQDVSTAVAWYQQKPGKAPKLLIYSASFLYSGVPSRFSGSGSGTDFTLTISSLQPEDFATYYCQQSFTTPPTFGQGTKVEIK
- IC50 [2]: 2.21 µM
